The values below come from publication PMC12172446, “Murine norovirus allosteric escape mutants mimic gut activation” (Journal of Virology, 2025).

This data set deals with the molecule itself. Kind of data set: cryo-EM structure; purified virions, ~1 mg/mL, in 30 mM HEPES pH 7.4, 100 mM NaCl; nothing, CaCl2 or 10 mM GCDCA added (V339I), nothing added (D348E); icosahedral reconstruction of the capsid.

B1: Murine norovirus MNV-1 capsid protein VP1, V339I escape mutant (in purified virions) (natural protein, murine norovirus (MNV-1, genotype GV.1), UniProt Q80J94 1-541, looked up)
chain: MRMSDGAAPKANGSEASGQDLVPAAVEQAVPIQPVAGAALAAPAAGQINQIDPWIFQNFVQCPLGEFSISPRNTPGEILFDLALGPGLNPYLAHLSAMYTGWVGNMEVQLVLAGNAFTAGKVVVALVPPYFPKGSLTTAQITCFPHVMCDVRTLEPIQLPLLDVRRVLWHATQDQEESMRLVCMLYTPLRTNSPGDESFVVSGRLLSKPAADFNFVYLTPPIERTIYRMVDLPVIQPRLCTHARWPAPVYGLLVDPSLPSNPQWQNGRVHVDGTLLGTTPISGSWVSCFAAEAAYKFQSGTGEVATFTLIEQDGSAYVPGDRAAPLGYPDFSGQLEIEIQTETTKTGDKLKVTTFEMILGPTTNADQAPYQGRVFASVTAAASLDLVDGRVRAVPRSIYGFQDTIPEYNDGLLVPLAPPIGPFLPGEVLLRFRTYMRQIDTADAAAEAIDCALPQEFVSWFASNAFTVQSEALLLRYRNTLTGQLLFECKLYNEGYIALSYSGSGPLTFPTDGIFEVVSWVPRLYQLASVGSLATGRMLKQ
notes: Capsid protein VP1 (~58 kDa; N-terminal, shell and protruding domains) of murine norovirus MNV-1, as it stands in the purified virion, with the escape mutation V339I on the C'D' loop; also called V339I mutant virus; apo V339I; source: BV-2 cells infected with the MNV-1 mutant; virions purified (PEG precipitation, ultracentrifugation, sucrose gradient); copies: 180
For B1, the binding result is “binds”.

B2: Murine norovirus MNV-1 capsid protein VP1, D348E escape mutant (in purified virions) (natural protein, murine norovirus (MNV-1, genotype GV.1), UniProt Q80J94 1-541, looked up)
chain: MRMSDGAAPKANGSEASGQDLVPAAVEQAVPIQPVAGAALAAPAAGQINQIDPWIFQNFVQCPLGEFSISPRNTPGEILFDLALGPGLNPYLAHLSAMYTGWVGNMEVQLVLAGNAFTAGKVVVALVPPYFPKGSLTTAQITCFPHVMCDVRTLEPIQLPLLDVRRVLWHATQDQEESMRLVCMLYTPLRTNSPGDESFVVSGRLLSKPAADFNFVYLTPPIERTIYRMVDLPVIQPRLCTHARWPAPVYGLLVDPSLPSNPQWQNGRVHVDGTLLGTTPISGSWVSCFAAEAAYKFQSGTGEVATFTLIEQDGSAYVPGDRAAPLGYPDFSGQLEIEVQTETTKTGEKLKVTTFEMILGPTTNADQAPYQGRVFASVTAAASLDLVDGRVRAVPRSIYGFQDTIPEYNDGLLVPLAPPIGPFLPGEVLLRFRTYMRQIDTADAAAEAIDCALPQEFVSWFASNAFTVQSEALLLRYRNTLTGQLLFECKLYNEGYIALSYSGSGPLTFPTDGIFEVVSWVPRLYQLASVGSLATGRMLKQ
notes: Capsid protein VP1 (~58 kDa; N-terminal, shell and protruding domains) of murine norovirus MNV-1, as it stands in the purified virion, with the escape mutation D348E on the C'D' loop; also called D348E virus; apo D348E; source: BV-2 cells infected with the MNV-1 mutant; virions purified (PEG precipitation, ultracentrifugation, sucrose gradient); copies: 180
Take B2: the binding result is recorded as “binds”.
